The experiment concerns the target human 26S proteasome (human) (UniProt O00487). The experiment is described as follows: single-molecule TIRF microscopy.
UniProt O00487, sequence (O00487 whole entry, looked up): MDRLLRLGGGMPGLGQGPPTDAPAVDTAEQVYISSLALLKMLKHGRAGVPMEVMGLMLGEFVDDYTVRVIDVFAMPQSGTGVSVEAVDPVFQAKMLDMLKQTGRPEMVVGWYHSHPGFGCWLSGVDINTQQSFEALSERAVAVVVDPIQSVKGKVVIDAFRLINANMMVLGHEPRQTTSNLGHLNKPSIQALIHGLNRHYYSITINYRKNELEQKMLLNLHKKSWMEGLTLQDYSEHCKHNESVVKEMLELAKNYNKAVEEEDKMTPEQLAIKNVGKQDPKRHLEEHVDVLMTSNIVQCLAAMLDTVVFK

The substance K48-polyUb-GFP (from UniProt P0CG48) came in with a half-life of the proteasome-substrate complex of 2.82 s and a puncta density relative to pK48-polyUb-GFP of 5 fold. Turning to pK48-polyUb-GFP (from UniProt P0CG48), the half-life of the proteasome-substrate complex was 0.73 s.

For the origin of these results see article doi:10.1101/2023.08.10.552882.
